According to the supplement of paper PMC12764529:
± gives the half width of the 95% confidence interval.

Experiments:
[1] = folding stability dG unfold (combined trypsin and chymotrypsin); higher = more stable
How it was run: (§1)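 K50 was inferred by Bayesian fitting of sequencing counts obtained after protease digestion of designed mini-proteins. Unfolding free energy was derived by comparison with a sequence-predicted unfolded-state K50 and a shared folded-state K50, for each protease or both combined. The mini-proteins were under 80 residues, had no cysteine, were carried in a PA-tagged cDNA display construct, and were kept only if AlphaFold2 dimer inter-PAE exceeded 15.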

[2] = folding stability dG unfold from trypsin proteolysis; higher = more stable
How it was run: as §1

[3] = folding stability dG unfold from chymotrypsin proteolysis; higher = more stable
How it was run: as §1

Sequence	folding stability dG unfold [1] [kcal/mol]	folding stability dG unfold [2] [kcal/mol]	folding stability dG unfold [3] [kcal/mol]
SAGNSNTRYIVRIKIKKYNPETGKIEEIEIDVPISDDDLNIPVEKIIEALKKAFPNTEIEAEITKVPASAGG [r19_189_TrMRF]	3.74 ± 0.17	3.77 ± 0.29	3.88 ± 0.13
SAGKMKIISVKIENNTITIEIYKDGKKIKKIEIKKNKKKIIIKIEIEPGEEIKIKIEINGKTYEITIKPSAG [r5_533_TrROS_Hall]	4.11 ± 0.46	2.89 ± 0.26	4.64 ± 0.23
SAEMTEEERARRLAEKLREELEELGVEKVEIEFDEEERRVTVRVTLSPEVREKLAERLGLSREELDALLSAG [r14_688_TrROS_Hall]	3.43 ± 0.079	4.1 ± 0.1	2.914 ± 0.023
SAGGSAGGSMVTIPTGTEEEVEKVIAELEKKGLKPKKVEKEGNKVTVEFPDGTKVELIIEPGKSAGGSAGGS [r20_93_JUSTAS]	1.95 ± 0.099	1.06 ± 0.058	2.36 ± 0.14
SAGGSAGGMPLLALSYPVLKDGKLYRVLFLYSPDGTFLGPFYVSADLTEDIPPDTVVLVHPDALSAGGSAGG [r6_33_TrMRF]	3.55 ± 0.1	3.24 ± 0.09	3.523 ± 0.03
SAGGSAGGSAGGVPPGAPELRLKVTVTVTTVELDEDTNELTTTTETVTVEVTVKVGETLSAGGSAGGSAGGS [r10_133_TrROS_Hall]	1.2 ± 0.18	0.616 ± 0.11	1.17 ± 0.09
SAGGSWTIDIDPEKVKEVEHKRNPNGMNEHRLELPNKNGKKREVKIPMGMKSPEDALDEIRELLGKSAGGSA [r2_347_TrROS]	0.331 ± 0.39	0.167 ± 0.25	0.663 ± 0.32
SAGGPLTLEDLKNMPPGEKLEFTFGGYTYEVEIYKNDNGPPYITVKQRDPHDGEPVEEKRVPADDIVSAGGS [r16_763_TrROS]	1.58 ± 0.058	0.956 ± 0.032	1.92 ± 0.026
SAMILLIKIENKNDGKEFIIEITPNKITIYDKKTGKKYEITVDGNTITIKINGKTYKAKIKEVIPEEELSAG [r14_208_TrROS_Hall]	3.54 ± 0.49	3.23 ± 0.2	3.86 ± 0.096
SAGEKEVIEIEVRVTVVRRLPEDLSEEQRKALEDELEVEEVTVRVRFDLDTGRIYVEFEDGSRLEFELPSAG [r5_701_TrROS_Hall]	3.16 ± 0.1	2.67 ± 0.054	3.37 ± 0.066
SAGGSAGGSAGVITIPLDDINDLPPGFKVKPNNNSMMIEDGDNPIHIPPGEPVQIEPPDESAGGSAGGSAGG [r17_91_TrROS]	0.466 ± 0.22	0.65 ± 0.1	0.346 ± 0.097
SAGGSAGGSAGGNPGGKRQWVMMEFPIPPGKKIELPPNFNVSIFRDNDRLWLMITVDAVKSAGGSAGGSAGG [r7_584_TrROS]	1.9 ± 0.11	1.7 ± 0.07	1.88 ± 0.06
SAGGSAGGSPPPITIFTAYKDPEDGPYWMKRRKINPDNGNIEEEWYPADDLADHGLPPGDIFISAGGSAGGS [r12_123_TrROS]	0.203 ± 0.2	-0.566 ± 0.88	0.413 ± 0.33
SAMNLRFPLSTEALAKLLENLTPDQTLELRVRIGDRWVRVRLEIHRIERKEDELRVEVTLEVEPLRPEDSAG [r14_335_TrMRF]	3.35 ± 0.19	3.33 ± 0.095	3.34 ± 0.06
SAGGSAGGSAGGYLEAPIVIKIEFQIYDPDDGDPIATYEHTIMIPIEIELPPPPDPDNDSAGGSAGGSAGGS [r10_50_TrROS]	2.18 ± 0.23	1.97 ± 0.21	2.28 ± 0.17
SAGGSAKITIKPGETITITIKLENGETVEIRMRVEELPDGTYKITMEITYPDGSKIEMELTLKIKPSAGGSA [r15_476_TrROS_Hall]	4.05 ± 0.44	2.58 ± 0.21	4.43 ± 0.18
SAGAEVEVVELTDEEIEALAKELNPDVTIEVVVVRVPPPPEKVEVRDPETGETVTLTVTPDGEIRAEKSAGG [r19_70_TrROS_Hall]	0.0774 ± 0.35	0.624 ± 0.091	-0.235 ± 0.16
